{"source": "paper PMC4687910", "about": "“Thermostabilization of the Human Serotonin Transporter in an Antidepressant-Bound Conformation” (PLoS ONE, 2015)", "test_system": "T1, NCCc1c[nH]c2ccc(O)cc12", "T1 construct": "wild-type hSERT expressed in HEK293S cells", "assay": "cells, lysate or membranes", "assay_type": "cell-based, Homo sapiens", "settings": "Na+ and Cl-", "data": [{"substance": "human serotonin transporter (hSERT) (Homo sapiens)", "values": [{"measurement": "Km", "value": 3.4, "unit": "µM"}]}]}
